In experiment [1] the target is T1, cynomolgus monkey CD70, full length, on CHO cells (CHO-monkey CD70-D01) (cynomolgus monkey, UniProt A0A2K5WTU9 1-190).
T1 construct: whole, on cells; Stably transfected CHO cells; also called CHO-cynomolgus monkey CD70
T1 sequence: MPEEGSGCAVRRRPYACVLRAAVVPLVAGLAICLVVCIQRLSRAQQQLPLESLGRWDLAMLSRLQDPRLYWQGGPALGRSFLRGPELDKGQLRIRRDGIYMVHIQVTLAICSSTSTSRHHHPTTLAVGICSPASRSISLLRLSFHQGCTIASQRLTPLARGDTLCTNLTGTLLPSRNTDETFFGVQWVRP
Nature of the experiment: flow cytometry, chimeric IgG on CHO-cynomolgus monkey CD70 cells. How it is done:
(§1) Different cells in logarithmic growth phase were taken, blocked with 3% BSA for 30 minutes, and plated to a 96-well U-plate at 5×10⁴ cells/100 μL. The centrifuge was performed at 1100 rpm for 3 minutes. The supernatant was discarded and the cells were gently tapped to be loosening. 50 μL of gradient diluted antibody was added (antibody concentration: from 30 μg/mL, 3-fold dilution for 5 gradients) per well, and incubated at 4° C. for 1 hour. After incubation, 180 μL of 0.5% BSA was added to each well for washing 3 times. 30 μL/well of secondary antibody AlexaFluro647 anti-human IgG (Jackson Immuno Research, Cat. No: 109-606-170) was added and incubated at 4° C. for 45 minutes. At the end of the incubation, each well was washed 3 times with 180 μL of 0.5% BSA and finally resuspended in 50 μL of PBS for iQue (Intellicyt, USA) assay.
(In general: A flow cytometer gives signals particle by particle.)

For experiment [2], the target named is T2, recombinant cynomolgus monkey CD70 protein (cynomolgus monkey, UniProt A0A2K5WTU9 39-190).
T2 construct: it stands only in column heads ('Monkey', 'Cynomolgus Monkey CD70/CD27') and in result sentences; also called Monkey (ELISA)
T2 sequence: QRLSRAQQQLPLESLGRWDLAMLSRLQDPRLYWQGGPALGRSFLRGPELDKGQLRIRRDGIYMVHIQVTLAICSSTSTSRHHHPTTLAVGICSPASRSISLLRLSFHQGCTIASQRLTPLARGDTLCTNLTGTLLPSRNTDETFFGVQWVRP
Nature of the experiment: competition ELISA, chimeric IgG titrated, CD27 coated, biotin-CD70, cynomolgus pair. How it is done:
(§2) The recombinant CD27 protein was coated at 1 μg/mL in a 96-well microtiter plate and incubated overnight at 4° C. The next day, the plate was washed 3 times with PBS, added with 200 μL of 2% defatted dry milk/PBS, blocked at room temperature for 2 hours, and washed once with PBS. The purified chimeric antibody was divided to 12 concentration gradients starting at 100 nM and diluted in a 1:3 gradient. […] of the antibody was added per well and incubated at room temperature for 30 minutes. […] The plate was washed 3 times with PBST and PBS and dried by spinning. A secondary antibody Streptavidin-coupled horseradish peroxidase SA-HRP (BD bioscience, cat. No: 6222697) was diluted with 0.5% BSA in a ratio of 1:8000. 100 μL of the diluent was added into each well and incubated at room temperature for 30 minutes. The plate was washed 3 times with PBST and PBS and dried by spinning. 100 μl of color development solution (TMB solution, Sigma, Cat. No: T2885) was added into each well and protected from light at 37° C. for reaction. After the substrate developed moderately, 50 μl of H₂SO₄ was added into each well to terminate the reaction. The OD450 nm was determined by using an enzyme-linked detector within 30 minutes, and the data was collected. The results were calculated by using Graph Pad Prism 5 software.
(An ELISA detects its analyte on a solid surface through an enzyme-linked reagent.)

For experiment [3], the target named is T3, human CD70, full length, on CHO cells (CHO-human CD70-B07) (human, UniProt P32970 1-193).
T3 construct: whole, on cells; Stably transfected CHO cells; also called CHO-CD70
T3 sequence (looked up): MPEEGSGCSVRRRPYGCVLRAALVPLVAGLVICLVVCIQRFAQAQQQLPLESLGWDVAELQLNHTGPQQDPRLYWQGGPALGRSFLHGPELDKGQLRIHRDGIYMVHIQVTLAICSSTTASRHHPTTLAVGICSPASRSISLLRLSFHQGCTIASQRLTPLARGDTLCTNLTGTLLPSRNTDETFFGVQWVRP
Nature of the experiment: flow cytometry, chimeric IgG on CHO-human CD70 cells. How it is done: as §1

Experiment [4] has as its target T4, recombinant trimeric protein of human CD70 extracellular region (human CD70 mIgG Fc (knob) / mouse IgG Fc … (human, UniProt P01863 98-330 = IgG part)).
T4 construct: The ELISA and Octet texts say only 'recombinant CD70 protein' / 'CM352 antigen'; also called recombinant human CD70 protein; recombinant CD70 protein
T4 chain 1: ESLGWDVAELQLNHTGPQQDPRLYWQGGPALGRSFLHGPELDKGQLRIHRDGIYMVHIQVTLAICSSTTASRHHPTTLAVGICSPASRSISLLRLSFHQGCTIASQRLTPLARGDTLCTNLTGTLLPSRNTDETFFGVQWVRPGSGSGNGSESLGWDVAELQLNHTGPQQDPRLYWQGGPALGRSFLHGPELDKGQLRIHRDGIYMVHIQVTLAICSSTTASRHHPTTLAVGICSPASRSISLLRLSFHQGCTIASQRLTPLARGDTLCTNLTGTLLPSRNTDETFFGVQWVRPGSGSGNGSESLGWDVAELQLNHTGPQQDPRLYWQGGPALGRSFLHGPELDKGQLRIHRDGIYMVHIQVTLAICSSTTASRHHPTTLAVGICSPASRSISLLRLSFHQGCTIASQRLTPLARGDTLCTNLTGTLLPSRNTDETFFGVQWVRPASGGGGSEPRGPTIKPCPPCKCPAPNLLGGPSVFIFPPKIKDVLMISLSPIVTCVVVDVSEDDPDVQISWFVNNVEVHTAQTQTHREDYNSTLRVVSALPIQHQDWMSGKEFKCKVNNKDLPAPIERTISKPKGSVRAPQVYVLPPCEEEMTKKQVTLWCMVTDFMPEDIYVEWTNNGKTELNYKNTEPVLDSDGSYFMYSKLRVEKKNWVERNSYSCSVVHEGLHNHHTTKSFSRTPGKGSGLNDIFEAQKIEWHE
T4 chain 2: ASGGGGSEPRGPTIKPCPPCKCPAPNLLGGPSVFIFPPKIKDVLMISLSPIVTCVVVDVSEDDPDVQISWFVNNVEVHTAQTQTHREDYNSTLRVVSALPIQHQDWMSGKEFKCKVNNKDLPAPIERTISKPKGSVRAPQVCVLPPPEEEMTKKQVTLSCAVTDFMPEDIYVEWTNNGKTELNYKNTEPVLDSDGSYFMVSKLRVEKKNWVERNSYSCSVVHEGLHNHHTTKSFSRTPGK
Nature of the experiment: competition ELISA, chimeric IgG titrated, CD27 coated, biotin-CD70, human pair. The method, then: as §2

Experiment [5] has as its target T4, recombinant trimeric protein of human …. Nature of the experiment: competition ELISA, humanized IgG1 titrated, CD27 coated, biotin-CD70, human pair. The method, then:
The recombinant human CD27 protein was coated at 1 μg/mL in a 96-well microtiter plate and incubated overnight at 4° C. The next day, the plate was washed 3 times with PBS, added with 200 μL of 2% defatted dry milk/PBS, blocked at room temperature for 2 hours, and washed once with PBS. […] 30 μl of the antibody was added per well and incubated at room temperature for 30 minutes. […] The plate was washed 3 times with PBST and PBS and dried by spinning. A secondary antibody solution Streptavidin-coupled horseradish peroxidase SA-HRP (BD bioscience, Cat. No: 6222697) was diluted with 0.5% BSA in a ratio of 1:8000. 100 μL of the diluent was added into each well and incubated at room temperature for 30 minutes. The plate was washed 3 times with PBST and PBS and dried by spinning. […] of color development solution (TMB solution, Sigma, Cat. No: T2885) was added into each well and protected from light at 37° C. for reaction. After the substrate developed moderately, […] of H₂SO₄ was added into each well to terminate the reaction. The OD450 nm was determined using an enzyme-linked detector within 30 minutes, and the data was collected. The results were calculated by using Graph Pad Prism 5 software. See FIG. 10-1, 10-2, and Table 12 for the results.

Experiment [6] addresses T3, human CD70, full length, on CHO cells …. The experiment is described as follows: flow cytometry, humanized IgG1 on CHO-human CD70 cells. How it is done: (§3) The supernatant was discarded and the cells were gently tapped to be loosening. 50 μL of gradient diluted antibodies were added (antibody concentration: from 30 μg/mL, 3-fold dilution for 8 gradients) per well, and incubated at 4° C. for 1 hour. After incubation, 200 μL of 0.5% BSA was added to each well for washing 3 times. 50 μL/well of secondary antibody Alexa Fluro647 anti-human IgG (Jackson ImmunoResearch, Cat. No: 109-606-170) was added and incubated at 4° C. for 45 minutes. At the end of the incubation, each well was washed 3 times with 180 μL of 0.5% BSA and finally resuspended in 50 μL of PBS for iQue (Intellicyt) assay.

For experiment [7], the target named is T4, recombinant trimeric protein of human …. Nature of the experiment: cell-based or functional assay.
The target in experiment [8] is T1, cynomolgus monkey CD70, full length, on …. Nature of the experiment: flow cytometry, humanized IgG1 on CHO-cynomolgus monkey CD70 cells. How it is done:
as §3

Experiment [9] has as its target T2, recombinant cynomolgus monkey CD70 …. Nature of the experiment: competition ELISA, humanized IgG1 titrated, CD27 coated, biotin-CD70, cynomolgus pair.

B1: 25H7 chimeric antibody (antibody, V domains shown)
VH: EIQLVQSGPELKKPGETVKISCKASGYTFTNYGMNWVKQTPGKGLKWMGWINTDTGEPTYADDFKGRFAFSLETSASTAYLQINNLKNEDMATYFCAREEDYRYVFNYWGQGTTLTVSS
VL: DIQMTQTTSSLSASLGDRVTISCRASQDISNYLNWYQQKPDGTVKLLIYYTSRLHSGVPSRFSGSGSGTDYSLTISNLEQEDIATYFCQQGVTLPLTFGAGTKLELK
With B1, the figures for the EC50 in experiment [1] and in [3] were 17.4 nM and 16.1 nM, respectively. The IC50 (commonly the midpoint of a concentration-inhibition curve) in experiment [2] stood at 0.15 nM; in experiment [4] it was 0.16 nM.

B2: 26G11 chimeric antibody (antibody, V domains shown)
VH: QVQLQQSGPELVKPGASVKISCKTSGYTFADYTMHWVRQSQGKSLEWIGDIYPNDGGPNNNQKFKDKATLTVDKSSSTAYMELRSLTSEDSAVYYCARPFYYGNYAGFAFWGQGTLVTVSA
VL: EMVLTQSPAIMSASPGEKVTMTCSASSSVSYMYWYQQKPGSSPRLLIYDTSNLASGVPVRFSGSGSGTSYSLTISRMEAEDAATYYCQQWSSYPLTFGAGTRLEIK
As for B2, the EC50 (commonly the concentration that produces a half-maximal response) in [1] was determined as 21 nM; in experiment [3], 22.5 nM. Further, the figures for the IC50 in experiment [2] and in [4] were 0.21 nM and 0.17 nM, respectively.

B3: humanized antibody Ab001 (antibody, human IgG1, V domains shown)
VH: QIQLVQSGSELKKPGASVKVSCKASGYTFTNYGMNWVRQAPGQGLEWMGWINTYTGEPTYADGFTGRFVFSLDTSASTAYLQISSLKAEDTAVYFCAREEDYRYVFNYWGQGTLVTVSS
VL: DIQMTQSPSSLSASVGDRVTITCQASQDISNYLNWYQQKPGKAPKLLIYDTSRLHAGVPSRFSGSGSGTDYTFTISSLQPEDIATYFCQQGVTLPLTFGQGTKLEIK
notes: also called h39H5 VHv1 + h39H5 VKv1
As to B3, the figures for the IC50 in [5] and in experiment [9] were 0.04 nM and 0.05 nM, respectively. Also, the concentration for a half-maximal effect (EC50) in [6] was 2 nM; in [8], 5.78 nM. In experiment [7], the “Inhibition of IL-8 secretion IC50(nM), HT1080-human CD27 cells stimulated with recombinant human CD70” value is 10.7 nM.

B4: humanized antibody Ab007 (antibody, human IgG1, V domains shown)
VH: QVQLVQSGSELKKPGASVKVSCKASGYTFTNYGMNWVRQAPGQGLEWMGWINTYTGEPTYADGFTGRFVFSLDTSASTAYLQISSLKAEDTAVYYCAREEDYRYVFNYWGQGTLVTVSS
VL: DIQMTQSPSSLSASVGDRVTITCQASQDISNYLNWYQQKPGKAPKLLIYDTSRLHAGVPSRFSGSGSGTDYTFTISSLQPEDIATYFCQQGVTLPLTFGQGTKLEIK
notes: also called Ab007 IgG1; h39H5 VHv3 + h39H5 VKv1
As to B4, the IC50 in experiment [5] is 0.04 nM; in experiment [9], 0.05 nM. Further, the figures for the EC50 in experiment [6] and in experiment [8] were 2.57 nM and 3.14 nM, respectively. In [7], the “Inhibition of IL-8 secretion IC50(nM), HT1080-human CD27 cells stimulated with recombinant human CD70” value came out at 9.92 nM.

These data come from patent US20240247072A1 (KEYMED BIOSCIENCES, published 2024).
